Assay results from article PMC13071878, “Yeast Display Technology Enables Rapid Discovery of Low-Nanomolar Macrocyclic Peptide Inhibitors of Human Angiotensin-Converting Enzyme 2” (Journal of Medicinal Chemistry, 2026).

Legend:
[1] = biological target: extracellular catalytic domain of human angiotensin-converting enzyme 2 (hACE2), produced in mammalian cells (human) (UniProt Q9BYF1); assay: enzyme inhibition assay
[2] = biological target: human angiotensin-converting enzyme 1 (hACE1) (human) (UniProt P12821); assay: enzyme inhibition assay
human angiotensin-converting enzyme 1 (hACE1) (human), sequence (P12821 30-1256): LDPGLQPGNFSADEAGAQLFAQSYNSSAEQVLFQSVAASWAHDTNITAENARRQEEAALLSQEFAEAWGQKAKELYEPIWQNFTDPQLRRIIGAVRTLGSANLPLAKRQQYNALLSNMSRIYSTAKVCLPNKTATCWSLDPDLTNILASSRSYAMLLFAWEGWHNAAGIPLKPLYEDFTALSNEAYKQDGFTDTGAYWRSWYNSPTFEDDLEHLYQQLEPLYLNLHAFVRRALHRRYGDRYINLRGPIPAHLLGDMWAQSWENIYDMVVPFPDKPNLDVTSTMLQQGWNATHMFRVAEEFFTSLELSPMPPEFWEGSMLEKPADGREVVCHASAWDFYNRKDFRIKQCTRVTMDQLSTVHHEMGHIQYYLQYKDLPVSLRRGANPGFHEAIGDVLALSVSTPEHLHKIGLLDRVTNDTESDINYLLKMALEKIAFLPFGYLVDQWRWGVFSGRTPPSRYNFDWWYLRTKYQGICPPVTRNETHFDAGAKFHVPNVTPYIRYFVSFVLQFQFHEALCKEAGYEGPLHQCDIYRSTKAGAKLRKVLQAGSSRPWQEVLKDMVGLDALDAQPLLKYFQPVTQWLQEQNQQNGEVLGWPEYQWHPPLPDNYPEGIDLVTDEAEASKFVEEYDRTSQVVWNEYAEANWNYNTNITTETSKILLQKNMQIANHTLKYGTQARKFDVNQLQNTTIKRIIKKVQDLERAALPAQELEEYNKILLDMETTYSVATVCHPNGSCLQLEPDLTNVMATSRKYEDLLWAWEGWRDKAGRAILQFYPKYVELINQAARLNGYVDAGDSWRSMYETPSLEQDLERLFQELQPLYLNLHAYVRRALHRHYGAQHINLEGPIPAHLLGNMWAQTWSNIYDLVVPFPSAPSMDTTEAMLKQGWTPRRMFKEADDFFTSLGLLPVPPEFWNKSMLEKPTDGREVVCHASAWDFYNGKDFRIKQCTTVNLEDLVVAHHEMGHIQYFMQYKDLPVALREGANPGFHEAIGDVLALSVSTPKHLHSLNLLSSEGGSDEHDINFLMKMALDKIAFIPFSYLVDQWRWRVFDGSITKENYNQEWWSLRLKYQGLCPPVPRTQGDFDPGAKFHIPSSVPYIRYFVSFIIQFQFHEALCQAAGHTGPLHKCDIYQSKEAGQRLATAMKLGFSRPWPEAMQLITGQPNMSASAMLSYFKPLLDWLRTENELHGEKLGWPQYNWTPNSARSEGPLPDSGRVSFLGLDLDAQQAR

extracellular catalytic domain of human angiotensin-converting enzyme 2 (hACE2), produced in mammalian cells (human), sequence (Q9BYF1 19-615): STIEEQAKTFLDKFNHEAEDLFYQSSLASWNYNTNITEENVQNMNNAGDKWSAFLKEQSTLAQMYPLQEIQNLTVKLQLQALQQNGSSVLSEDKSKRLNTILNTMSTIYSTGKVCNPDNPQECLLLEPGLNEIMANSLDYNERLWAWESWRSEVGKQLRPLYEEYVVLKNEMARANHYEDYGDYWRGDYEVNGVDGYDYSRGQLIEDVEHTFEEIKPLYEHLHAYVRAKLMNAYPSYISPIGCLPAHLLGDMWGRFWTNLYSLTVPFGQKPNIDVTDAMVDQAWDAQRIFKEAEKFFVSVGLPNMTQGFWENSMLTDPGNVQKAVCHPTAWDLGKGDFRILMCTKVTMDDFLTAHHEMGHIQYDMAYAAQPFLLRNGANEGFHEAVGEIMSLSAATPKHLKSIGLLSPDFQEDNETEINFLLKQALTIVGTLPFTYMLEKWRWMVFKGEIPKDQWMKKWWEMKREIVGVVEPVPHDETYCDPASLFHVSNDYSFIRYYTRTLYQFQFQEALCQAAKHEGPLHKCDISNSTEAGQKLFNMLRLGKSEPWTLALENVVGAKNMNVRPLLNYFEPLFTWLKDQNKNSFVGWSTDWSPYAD

## A0773, commercially available inhibitor (peptide)
[1]
  IC50: > 30000 nM
  Ki: > 30000 nM
[2]
  IC50: 212 nM
  Ki: 53 nM
